Patent US8394929B2, “Nogo receptor-mediated blockade of axonal growth” (Yale University, priority 2000, dated 2013)
Blank lines part the entries; values can stand above or below the molecule they belong to.

Tests used:
Assay type in all cases: cell-based
[1] = system: TPA-induced growth cone collapse; test: TPA-induced growth cone collapse in E12 chick DRG explants
Experimental: For further testing, a synthetic peptide containing amino acid residues #1055-1094 of hNgR, acetylated at the […] was used [hereinafter “Peptide 140”]. […] Antagonist of Nogo-66 inhibitory activity may act by competing for, and thereby blocking NgR binding sites. To determine the antagonistic activity of Peptide 140, the above synthetic form of the peptide was added to E12 chick DRG explant cultures approximately 10 min before application of various concentrations of GST-NogoA (residues #1055-1120), TPA or Sema3A. 30 min later, cultures were fixed and growth cone collapse was assessed following staining with rhodamine-phalloidin.

wild-type NgR (wtNgR) = biological target: T1, wild-type NgR (wtNgR) (Mus musculus, UniProt Q99PI8); test: Growth cone collapse in E7 retinal ganglion cells infected with HSV wild-type NgR
T1 construct: expressed in transfected cells; host or cells: chick E7 retinal ganglion cell explants infected with recombinant HSV
T1 sequence (Q99PI8 27-447): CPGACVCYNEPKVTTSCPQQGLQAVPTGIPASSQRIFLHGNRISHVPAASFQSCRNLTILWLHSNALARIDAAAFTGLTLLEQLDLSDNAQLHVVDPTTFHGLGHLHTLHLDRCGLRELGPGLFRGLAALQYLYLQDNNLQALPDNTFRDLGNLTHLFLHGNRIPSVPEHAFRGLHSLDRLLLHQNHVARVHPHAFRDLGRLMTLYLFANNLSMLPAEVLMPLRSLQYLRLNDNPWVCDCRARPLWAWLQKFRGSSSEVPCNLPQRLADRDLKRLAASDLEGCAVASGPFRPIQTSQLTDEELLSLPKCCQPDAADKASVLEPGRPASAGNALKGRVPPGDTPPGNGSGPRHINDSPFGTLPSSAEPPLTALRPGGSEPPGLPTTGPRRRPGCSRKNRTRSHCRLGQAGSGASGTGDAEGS
Experimental: Both dorsal root ganglion and retinal neurons from E7 chick embryos were examined. The Nogo responses in the dorsal root ganglion neurons from this developmental stage are weak but slight responses can be detected in some cultures (data not shown).
Because the mouse NgRCT domain was determined to be dispensable for hNogo-A (1055-1120) binding, the ability of NgRΔCT to mediate Nogo-dependent inhibition was examined. HSVNgR constructs transfected into HEK293T cells mediated the expression of mNgR proteins of the predicted molecular weight, as determined by SDS-PAGE and anti-Myc and anti-NgR immunoblotting (FIG. 19A). Day E7 chick retinal ganglion cells (RGCs) were grown for 12 hr, then further incubated for 24 hr with HSVNgR preparations. Explants were fixed with 4% paraformaldehyde with 0.1 M PO4 and 20% sucrose and stained with phalloidin or with anti-myc antibodies. HSVNgR protein expression was detected in axons of infected (RGC) cultures (FIG. 19B).
Growth cone collapse in response to GST-hNogo-A (1055-1120) was investigated in infected RGC cultures. Retinal explants infected with recombinant viral preparations of PlexinA1 (PlexA1), wild-type NgR (wtNgR), NgRL1 chimeric receptor in which the GPI domain has been replaced by the transmembrane region and cytoplasmic tail from the mouse adhesion protein L1 (NgRL1), or NgR carboxy terminal deletion mutant (NgRΔCT) for 12 hr. […]

NgRL1 chimeric receptor = biological target: T2, NgRL1 chimeric receptor (Mus musculus, UniProt P11627+Q99PI8); test: Growth cone collapse in E7 retinal ganglion cells infected with NgRL1
T2 construct: L1NgR encodes residues 1-451 of mouse NgR fused to the transmembrane and cytoplasmic tail of mouse L1; expressed in transfected cells; host or cells: chick E7 retinal ganglion cells infected with recombinant HSVL1NgR
Experimental: Growth cone collapse in response to GST-hNogo-A (1055-1120) was investigated in infected RGC cultures. Retinal explants infected with recombinant viral preparations of PlexinA1 (PlexA1), wild-type NgR (wtNgR), NgRL1 chimeric receptor in which the GPI domain has been replaced by the transmembrane region and cytoplasmic tail from the mouse adhesion protein L1 (NgRL1), or NgR carboxy terminal deletion mutant (NgRΔCT) for 12 hr. Following infection, the cells were treated for 30 min with 0, 50, 250, or 500 nM GST-hNogo-A (1055-1120) (GrandPre et al., Nature 403: 439-444, 2000), fixed with 4% paraformaldehyde with 0.1 M PO4 and 20% sucrose, and stained with phalloidin. […] Cells infected with NgRΔCT were insensitive to GST-hNogo-A (1055-1120). The CT region of NgR is therefore required for effective NgR inhibitory signaling.
To test the signaling capability of NgRLI, recombinant HSVL1NgR preparations were produced and used to infect E7 RGCs. Infected RGCs were treated with GST-hNogo-A (1055-1120) and growth cone collapse was assessed (FIG. 20). […] Because the intracellular signals induced by Nogo have not been elucidated, it remains to be determined if ligand binding effects signaling events at caveolar microdomains.

T2 sequence (Q99PI8+P11627 fused, change not shown): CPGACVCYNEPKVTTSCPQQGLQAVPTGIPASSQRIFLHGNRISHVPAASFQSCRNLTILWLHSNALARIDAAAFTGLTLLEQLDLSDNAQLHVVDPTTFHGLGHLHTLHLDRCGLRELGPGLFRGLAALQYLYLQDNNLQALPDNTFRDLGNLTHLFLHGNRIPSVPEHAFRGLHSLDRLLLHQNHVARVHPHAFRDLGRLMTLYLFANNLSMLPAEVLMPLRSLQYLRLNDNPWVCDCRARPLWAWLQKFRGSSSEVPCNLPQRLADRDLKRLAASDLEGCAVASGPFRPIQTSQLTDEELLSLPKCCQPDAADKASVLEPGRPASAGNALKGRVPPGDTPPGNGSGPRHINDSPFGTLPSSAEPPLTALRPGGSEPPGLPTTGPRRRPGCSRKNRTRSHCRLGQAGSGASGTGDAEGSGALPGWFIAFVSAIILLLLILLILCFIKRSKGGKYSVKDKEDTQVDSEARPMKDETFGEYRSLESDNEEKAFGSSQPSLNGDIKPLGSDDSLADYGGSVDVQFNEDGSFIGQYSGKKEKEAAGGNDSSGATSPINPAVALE

Molecule: Peptide 140: synthetic peptide of amino acids #1055-1094 of the human NogoA protein, acetylated and amidated at the termini (Ac-RIYKGVIQAIQKSDEGHPFRAYLESEVAISEELVQKYSNS-NH2; UniProt Q9NQC3 1055-1094, looked up, fragment)
effect on TPA-induced growth cone collapse (in words) [1]: no significant reduction in collapse

growth cone collapse response (in words) (wild-type NgR (wtNgR); listed as GST-hNogo-A (1055-1120)): underwent growth cone collapse
growth cone collapse response (in words) (wild-type NgR (wtNgR); listed as Nogo-66): sensitive to Nogo-66-induced collapse
growth cone collapse response (in words) (NgRL1 chimeric receptor; 50 nM GST-hNogo-A (1055-1120)): not responsive
B1: GST-Nogo: GST fusion protein of the 66 amino acid lumenal-extracellular fragment of Nogo-A, expressed in E. coli (protein)
chain: RIYKGVIQAIQKSDEGHPFRAYLESEVAISEELVQKYSNSALGHVNCTIKELRRLFLVDDLVDSLK
modifications: also: GST fusion protein
notes: GST fusion protein of the 66 amino acid lumenal-extracellular fragment of Nogo-A, expressed in E. coli
growth cone collapse response (in words) (NgRL1 chimeric receptor; high concentrations of GST-hNogo-A (1055-1120)): transduces Nogo signals as efficiently as wtNgR
